Experimental data as given in publication PMC13137875.
Several values for one entry are separate records, joined by “and”; a condition that tells them apart may be missing. Equal values may be shown once.

How the values were obtained:
[1] = target: Rabbit skeletal muscle actin (G-actin) (rabbit) (UniProt P68135); experiment: SEC-SAXS
[2] = target: G-actin (Oryctolagus cuniculus) (UniProt P68135); details: cited from earlier work

In the case of “R. bellii MBP-Sca2/6 (maltose-binding protein tagged passenger domain of Sca2/6) (domain or fragment)”, the stoichiometry N [1] is reported as 1.
For Sca2 (from UniProt Q92JF7), the Kd [2] is listed as 0.02 µM and 0.2 µM.
